# B1: soluble HRP P. pastoris (Armoracia rusticana) (protein)
# chain: QLTPTFYDNSCPNVSNIVRDTIVNELRSDPRIAASILRLHFHDCFVNGCDASILLDNTTSFRTEKDAFGNANSARGFPVIDRMKAAVESACPRTVSCADLLTIAAQQSVTLAGGPSWRVPLGRRDSLQAFLDLANANLPAPFFTLPQLKDSFRNVGLNRSSDLVALSGGHTFGKNQCRFIMDRLYNFSNTGLPDPTLNTTYLQTLRGLCPLNGNLSALVDFDLRTPTIFDNKYYVNLEEQKGLIQSDQELFSSPNATDTIPLVRSFANSTQTFFNAFVEAMDRMGNITPLTGTQGQIRLNCRVVNSNS
# B2: refolded HRP E. coli (HRP C1A refolded from inclusion bodies) (Armoracia rusticana) (protein)
# chain: QLTPTFYDNSCPNVSNIVRDTIVNELRSDPRIAASILRLHFHDCFVNGCDASILLDNTTSFRTEKDAFGNANSARGFPVIDRMKAAVESACPRTVSCADLLTIAAQQSVTLAGGPSWRVPLGRRDSLQAFLDLANANLPAPFFTLPQLKDSFRNVGLNRSSDLVALSGGHTFGKNQCRFIMDRLYNFSNTGLPDPTLNTTYLQTLRGLCPLNGNLSALVDFDLRTPTIFDNKYYVNLEEQKGLIQSDQELFSSPNATDTIPLVRSFANSTQTFFNAFVEAMDRMGNITPLTGTQGQIRLNCRVVNSNS
# Substrate: CCn1c(=NN=c2sc3cc(S(=O)(=O)O)ccc3n2CC)sc2cc(S(=O)(=O)O)ccc21
# Test: purified protein
# Details: 1 mM H2O2, 50 mM KH2PO4 pH 6.5, 30 °C
Protein,Vmax [µmol/min/mg],Km (ABTS 0.005–10 mM) [µM],Vmax (ABTS 0.005–10 mM) [µmol/min/mg]
B1,152,,
B2,,1250 ± 100,62.5
